How the values were obtained:
[1] = molecular target: T1, soluble EBV gp42 (ectodomain, aa 34-223) (Epstein-Barr virus, strain M81, UniProt P03205); experiment: cell-based or functional assay
[2] = molecular target: T2, gHgL-gp42 complex (soluble gHgL with soluble gp42) (Epstein-Barr virus (HHV-4), strain M81, strain); experiment: SPR
[3] = molecular target: T1, soluble EBV gp42 (ectodomain, aa 34-223); experiment: SPR
[4] = molecular target: T3, virion-encoded gp42 expressed on the cell surface of EBV-positive CNE2 cells (Epstein-Barr virus (HHV-4); strain …); experiment: flow cytometry on cells
T3 chain: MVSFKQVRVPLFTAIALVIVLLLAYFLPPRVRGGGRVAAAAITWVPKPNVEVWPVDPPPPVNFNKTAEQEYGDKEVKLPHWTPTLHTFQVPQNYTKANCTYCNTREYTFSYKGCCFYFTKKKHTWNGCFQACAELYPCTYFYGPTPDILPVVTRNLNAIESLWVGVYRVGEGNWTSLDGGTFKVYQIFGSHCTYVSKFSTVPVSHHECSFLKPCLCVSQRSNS

[5] = molecular target: T2, gHgL-gp42 complex (soluble gHgL with …); experiment: SEC
[6] = molecular target: T1, soluble EBV gp42 (ectodomain, aa 34-223); experiment: cryo-EM structure
[7] = molecular target: virion-encoded gHgL expressed on the cell surface of EBV-positive CNE2 cells (Epstein-Barr virus (HHV-4), strain in …); experiment: flow cytometry on cells

B1: 5E3 (anti-gp42 rabbit mAb, constant regions replaced with human IgG1) (antibody, V domains shown)
VH: QPVEESGGRLVTPGTPLTLTCTVSGFSLSTYAMSWVRQAPGKGLEWIGTISASDTTYFANWTKGRFTISKASTTVDLKITSPTTEDTATFFCARFSAYESNRDYFDTFDPWGPGTLVTVSS
VL: DVVMTQTPSPVSAAVGGTVTIKCQASQNIYRDLAWYQQNPGQPPKLLIYGASNLASGVPSRFSGSGSGTEYILTISDLECADAATYYCQCSAYGSGYAAHAFGGGTKVDIK
**Q.** Which “IC50 of neutralisation of EBV infection of Akata B cells; blocks gp42:HLA-II” value [1] does the source give for B1 here?
**A.** The value was 0.2 µg/mL.

**Q.** Does B1 bind [2]?
**A.** Result: binds

**Q.** What about the Kd [3] of the same binder?
**A.** The Kd was 0.39 nM.

**Q.** Does B1 bind [4]?
**A.** Result: binds

B2: 5E3 Fab (Fab, V domains shown)
VH: QPVEESGGRLVTPGTPLTLTCTVSGFSLSTYAMSWVRQAPGKGLEWIGTISASDTTYFANWTKGRFTISKASTTVDLKITSPTTEDTATFFCARFSAYESNRDYFDTFDPWGPGTLVTVSS
VL: DVVMTQTPSPVSAAVGGTVTIKCQASQNIYRDLAWYQQNPGQPPKLLIYGASNLASGVPSRFSGSGSGTEYILTISDLECADAATYYCQCSAYGSGYAAHAFGGGTKVDIK
**Q.** Does B2 bind [5]?
**A.** Result: binds

**Q.** Does B2 bind [6]?
**A.** Result: binds

B3: 6H2 (anti-gHgL mAb, constant regions replaced with human IgG1) (antibody, V domains shown)
VH: EVKLLESGGGLVQPGGSLKLSCAASGFDFSRYWMTWVRQAPGQGLEWIGEINPDSSTINYTPSLKDKFIISRDNAKNTLYLQVSKLRSEDTALYYCARSPYYYGSSYDVWGAGTAVTVSS
VL: DIVMSQSPSSLAVSAGEKVTMNCKSSQSLLNSRTRKNYLAWYQQKPGQSPKLLIYWASTRESGVPDRFTGSGSGTDFTLTISSVQAEDLAFYYCKQSYNLPTFGGGTKLEIK
**Q.** Which results are given for B3?
**A.** binding result [2]: binds; binding result [7]: binds

B4: 6H2 Fab (Fab, V domains shown)
VH: EVKLLESGGGLVQPGGSLKLSCAASGFDFSRYWMTWVRQAPGQGLEWIGEINPDSSTINYTPSLKDKFIISRDNAKNTLYLQVSKLRSEDTALYYCARSPYYYGSSYDVWGAGTAVTVSS
VL: DIVMSQSPSSLAVSAGEKVTMNCKSSQSLLNSRTRKNYLAWYQQKPGQSPKLLIYWASTRESGVPDRFTGSGSGTDFTLTISSVQAEDLAFYYCKQSYNLPTFGGGTKLEIK
**Q.** Does B4 bind [5]?
**A.** Result: binds

B5: 10E4 (anti-gHgL rabbit mAb, constant regions replaced with human IgG1) (antibody, V domains shown)
VH: QQVKESGGRLVTPGTPLTLTCTASGFSLSTYWMSWVRQAPGKGLEYIGVIGGSGSTYYASWAKGRFTISKTSTTVDLKITSPTTEDTATYFCARDSGAGVRFRFWGPGTLVTVSS
VL: DLVMTQTPASVEAGVGGTVTINCQASENIGSRLAWYQQKPGQPPKLLIYRASTLESGVPSRFKGSGSGTEFTLTISDLECADAATYYCQCTYGVSITINYGNDFGGGTEVVVK
**Q.** Does B5 bind [2]?
**A.** Result: binds

**Q.** Does B5 bind [7]?
**A.** Result: binds

B6: 10E4 Fab (Fab, V domains shown)
VH: QQVKESGGRLVTPGTPLTLTCTASGFSLSTYWMSWVRQAPGKGLEYIGVIGGSGSTYYASWAKGRFTISKTSTTVDLKITSPTTEDTATYFCARDSGAGVRFRFWGPGTLVTVSS
VL: DLVMTQTPASVEAGVGGTVTINCQASENIGSRLAWYQQKPGQPPKLLIYRASTLESGVPSRFKGSGSGTEFTLTISDLECADAATYYCQCTYGVSITINYGNDFGGGTEVVVK
**Q.** Does B6 bind [5]?
**A.** Result: binds

B7: 3E8 (anti-gp42 rabbit mAb, constant regions replaced with human IgG1) (antibody, V domains shown)
VH: QPVKESGGRLVTPGTPLTLTCTASGFSLSSYWMSWVRQARGKGLEWIGTATAGGSAWYASWAKGRFTISRTSTTVELRMTSLTTEDTATYFCARDPPGHSGLWGRGTLVTVSS
VL: DLVMTQTPASVEAAVGGTVTIKCQASESIGNALAWYQQKPGQPPKLLIYDTSNLASGVSSRFRGSGSGTQFTLTISDLECADAATYYCQTYYYSGVTTTYQAFGGGTEVDVK
**Q.** Does B7 bind [2]?
**A.** Result: binds

**Q.** What about the Kd [3] of the same binder?
**A.** The Kd was 0.42 nM.

**Q.** Does B7 bind [4]?
**A.** Result: binds

B8: 3E8 Fab (Fab, V domains shown)
VH: QPVKESGGRLVTPGTPLTLTCTASGFSLSSYWMSWVRQARGKGLEWIGTATAGGSAWYASWAKGRFTISRTSTTVELRMTSLTTEDTATYFCARDPPGHSGLWGRGTLVTVSS
VL: DLVMTQTPASVEAAVGGTVTIKCQASESIGNALAWYQQKPGQPPKLLIYDTSNLASGVSSRFRGSGSGTQFTLTISDLECADAATYYCQTYYYSGVTTTYQAFGGGTEVDVK
**Q.** Does B8 bind [5]?
**A.** Result: binds

From publication PMC10694767 (Cell Reports Medicine, 2023)
